The results in this text go back to patent publication US20040071656A1 (published 2004).

Experiment [1] has as its target T1, Recombinant human His6-tagged Hsp70 (human, UniProt P0DMV8 2-641).
T1 construct: mature; also called His6-Hsp70; human Hsp70
Briefly: titration of peptide C in the GST-CD40 pull-down of His6-Hsp70-ADP, quantified immunoblot. As for the experimental part: For binding assays with recombinant Hsp70 and its domains, 3 μM His6-Hsp70 or its His6-tagged domains were incubated with 2 mM ATP, 2 mM ADP or 2 mM ADP and 28 μM peptide C in 50 μl binding buffer (10 mM MOPS/KOH, pH 7.2, 150 mM KCl and 3 mM MgCl2) for 30 min at 37° C. In competition experiments binding was probed with either a 10-fold excess of Hsp70, the two domains, or DnaK, or with a 5-fold excess of Hip or Bag 1 for 10 min at 0° C. To this end, Hsp70, N70, C70 and DnaK were preincubated with ADP, ATP and peptide C as described above. For comparison of CD40 binding of Hsp70 and its N-terminal domain, Hsp70 was preincubated in the presence or absence (mock treatment) of a 30-fold molar excess of peptide C. 3 μM of GST or GST-CD40 was added to the samples and incubated for 20 min at 16° C. For titration of peptide C, 5- to 50-fold excess of peptide C (15-150 μM) was added to the preincubation of Hsp70. Thereafter the samples were combined with 20 μl of 1% BSA-treated Glutathione Sepharose 4 Fast Flow and incubated in the presence of 2 mM DTT for another 20 min at 16° C. […] 10 μl of the eluates were subjected to SDS-PAGE and analyzed by immunoblotting using a Penta-His-antibody (Quiagen). Blot signals were quantified by Quantity One (Biorad).
For orientation: A western blot detects proteins with antibodies after separation by electrophoresis.

Experiment [2] addresses T2, Biotinylated recombinant Hsp70 (human, UniProt P0DMV8 2-641).
T2 construct: mature; also called biotinylated Hsp70; biotin-labeled Hsp70; not shown: His tag
Briefly: fluorescence microscopy on LPS-stimulated ANA1 cells. As for the experimental part:
ANA-1 cells were cultured in VLE-RPMI 1640 (Biochrom), supplemented with 10% FCS, 2 mM L-glutamine and antibiotics. For fluorescence microscopy, ANA1 cells were either stimulated with LPS (20 μg/ml, Sigma, Germany), or kept in an LPS-free medium (mock treatment) for 7 h. After stimulation, cells were harvested and incubated with 100 nM biotinylated Hsp70, biotinylated GST, or Hsp70/peptide C-biotin complex for 30 min at 0° C. in VLE-RPMI 1640. After incubation cells were processed for staining with streptavidin-TRITC (Sigma, Germany), fixed with paraformaldehyde and analyzed by fluorescence microscopy (Axiovert 35, Zeiss) as described (Sondermann et al., 2000). […] Twenty-four h post-transfection cells were incubated with 250 nM biotinylated Hsp70, biotinylated GST or Hsp70/peptide C-biotin complex for 30 min at 0° C. in DMEM, fixed, stained with streptavidin-TRITC (Sigma, Germany), and analyzed by fluorescence microscopy as described (Sondermann et al., 2000, idem). […] Stably transfected cell lines were analyzed by immunoblotting for CD40 expression using an anti-CD40 antibody (CSA180, Stressgen). […]

T2 sequence (P0DMV8 2-641): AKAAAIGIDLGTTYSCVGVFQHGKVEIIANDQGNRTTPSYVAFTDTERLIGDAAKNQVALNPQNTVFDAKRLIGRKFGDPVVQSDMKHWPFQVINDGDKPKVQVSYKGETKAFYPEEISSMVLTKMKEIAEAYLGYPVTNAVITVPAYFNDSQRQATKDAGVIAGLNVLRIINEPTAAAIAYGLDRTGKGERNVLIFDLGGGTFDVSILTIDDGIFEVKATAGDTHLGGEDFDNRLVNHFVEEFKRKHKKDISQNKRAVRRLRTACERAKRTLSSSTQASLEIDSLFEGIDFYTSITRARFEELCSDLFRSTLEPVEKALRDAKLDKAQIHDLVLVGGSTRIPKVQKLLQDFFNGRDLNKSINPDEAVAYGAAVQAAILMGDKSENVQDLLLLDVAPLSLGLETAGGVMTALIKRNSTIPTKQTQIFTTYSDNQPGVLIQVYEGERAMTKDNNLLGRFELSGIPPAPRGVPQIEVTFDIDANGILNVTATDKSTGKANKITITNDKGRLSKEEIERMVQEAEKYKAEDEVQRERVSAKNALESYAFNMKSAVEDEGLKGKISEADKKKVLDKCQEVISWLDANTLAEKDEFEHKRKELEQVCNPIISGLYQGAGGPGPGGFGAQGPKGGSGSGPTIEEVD
T1 sequence (P0DMV8 2-641): as above

B1: Peptide C (GCEVFGLGWRSYKH) (peptide)
peptide: GCEVFGLGWRSYKH
notes: Synthetic Hsp70 substrate peptide; also called peptide substrate; substrate peptide
For the molecule B1, in experiment [1], the “ka (saturable effect of peptide C on binding of Hsp70-ADP to CD40)” value was about 30 µM.

B2: Endogenous CD40 of LPS-stimulated murine ANA1 macrophage cells (receptor, UniProt P27512 20-289, looked up)
chain: LGQCVTCSDKQYLHDGQCCDLCQPGSRLTSHCTALEKTQCHPCDSGEFSAQWNREIRCHQHRHCEPNQGLRVKKEGTAESDTVCTCKEGQHCTSKDCEACAQHTPCIPGFGVMEMATETTDTVCHPCPVGFFSNQSSLFEKCYPWTSCEDKNLEVLQKGTSQTNVICGLKSRMRALLVIPVVMGILITIFGVFLYIKKVVKKPKDNEILPPAARRQDPQEMEDYPGHNTAAPVQETLHGCQPVTQEDGKESRISVQERQVTDSIALRPLV
notes: whole, on cells
Regarding B2, in experiment [2], the binding result was “binds”.
